Results reported in patent publication US20220298231A1.
One block for each binder: values may come before it.

Experiments:
Settings in all cases: remark: other sources report otherwise
[1] = molecular target: human full-length alpha-synuclein (human), P37840; assay: SPR, mAb captured; alpha-synuclein monomers
[2] = molecular target: human full-length alpha-synuclein (human), P37840; assay: SPR, mAb captured, steady-state fit
[3] = molecular target: human full-length alpha-synuclein (human), P37840; assay: SPR, 100 nM monomer, relative to chimeric
[4] = molecular target: alpha-synuclein fibrils (Homo sapiens (Human)), P37840; assay: SPR, 450 nM aggregates, relative to chimeric
[5] = molecular target: alpha-synuclein fibrils (Homo sapiens (Human)), P37840; assay: SPR, mAb captured; alpha-synuclein fibrils

- koff [1]: 0.0226 s⁻¹
B1: ACI-7067-1113D10-Ab1 (antibody, V domains shown)
VH: EVQLVESGGGLVQPKGSLKLSCAASGFTFNTYALHWVRQAPGKGLEWVARIRSKSSNYATYYADSVKDRFTISRDDSQSMLYLQMNNLKTEDTGMYYCVRGGVSPFDYWGQGTTLTVSS
VL: QIVLTQSPAIMSASPGEKVTMTCSASSSVSYMHWYQQKSGTSPKRWIYDTSKLASGVPARFSGSGSGTSYSLTISSMEAEDSATYYCQQWSNNPPTFGGGTKLEIK

- Kd [2]: 54.5 nM
- Relative koff [3]: 1
- Relative koff [4]: 1
B2: cACI-7067-1101C8-Ab2 (antibody, V domains shown)
VH: EVQLVESGGGLVQPKGSLKLSCAASGFSFNIYAMNWVRQAPGKGLEWVARIRSKSNNYATYYADSVKDRFTISRADSESMLYLQMNNLKTEDTAMYYCVRVGLRFYAMDYWGQGTSVTVSS
VL: DVLMTQTPLSLPVSLGDQASISCRSSQSIVHSNGNTYLEWYLQKPGQSPKLLIYKVSNRFSGVPDRFSGSGSGTDFTLKISRVEAEDLGVYYCFQGSQGPLTFGAGTKLELK

- koff [5]: < 1e-05 s⁻¹
- kon [5]: 9450 M⁻¹ s⁻¹
B3: ACI-7079-2503C6-Ab1 (antibody, V domains shown)
VH: DVQLQESGPGLVKPSQSLSLTCSVTGYSITSGYYWNWIRLFPGNKLEWLGYINYDGSNNFNPSLKNRISITRDTSKNQFFLKLNSVTSEDTATYFCLRGDWDWGQGTLVTVSA
VL: not shown
